Results taken from the supplement of paper PMC11246515.
± gives the standard deviation of the averaged measurements.

Assay: total protein half-life in vivo (active degradation + dilution); higher = more stable protein
[1] = E. coli NCM3722 delta-clpP delta-lon delta-hslV, growth: N-lim chemostat, doubling time 6 h
[2] = E. coli NCM3722 delta-hslV, growth: N-lim chemostat, doubling time 6 h
[3] = E. coli NCM3722 delta-smpB, growth: N-lim chemostat, doubling time 6 h
[4] = wild type E. coli NCM3722, growth: C-lim chemostat, doubling time 3 h
[5] = E. coli NCM3722 delta-clpP, growth: N-lim chemostat, doubling time 6 h
[6] = E. coli NCM3722 delta-lon, growth: N-lim chemostat, doubling time 6 h
[7] = wild type E. coli NCM3722, growth: C-lim chemostat, doubling time 6 h
[8] = wild type E. coli NCM3722, growth: C-lim chemostat, doubling time 12 h
[9] = wild type E. coli NCM3722, growth: N-lim chemostat, doubling time 6 h
[10] = wild type E. coli NCM3722, growth: N-lim chemostat, doubling time 12 h
[11] = wild type E. coli NCM3722, growth: P-lim chemostat, doubling time 6 h
[12] = wild type E. coli NCM3722, growth: P-lim chemostat, doubling time 12 h

Sequence | total protein half-life in vivo [1] [h] | total protein half-life in vivo [2] [h] | total protein half-life in vivo [3] [h] | total protein half-life in vivo [4] [h] | total protein half-life in vivo [5] [h] | total protein half-life in vivo [6] [h] | total protein half-life in vivo [7] [h] | total protein half-life in vivo [8] [h] | total protein half-life in vivo [9] [h] | total protein half-life in vivo [10] [h] | total protein half-life in vivo [11] [h] | total protein half-life in vivo [12] [h]
MATLTTTQTSPSLLGGVVIIGGTIIGAGMFSLPVVMSGAWFFWSMAALIFTWFCMLHSGLMILEANLNYRIGSSFDTITKDLLGKGWNVVNGISIAFVLYILTYAYISASGSILHHTFAEMSLNVPARAAGFGFALLVAFVVWLSTKAVSRMTAIVLGAKVITFFLTFGSLLGHVQPATLFNVAESNASYAPYLLMTLPFCLASFGYHGNVPSLMKYYGKDPKTIVKCLVYGTLMALALYTIWLLATMGNIPRPEFIGIAEKGGNIDVLVQALSGVLNSRSLDLLLVVFSNFAVASSFLGVTLGLFDYLADLFGFDDSAVGRLKTALLTFAPPVVGGLLFPNGFLYAIGYAGLAATIWAAIVPALLARASRKRFGSPKFRVWGGKPMIALILVFGVGNALVHILSSFNLLPVYQ [P0AAD2] | 2.1 | 0.779 | 0.897 | 1.97 ± 0.16 | – | – | – | – | – | – | – | –
MLDQVCQLARNAGDAIMQVYDGTKPMDVVSKADNSPVTAADIAAHTVIMDGLRTLTPDVPVLSEEDPPGWEVRQHWQRYWLVDPLDGTKEFIKRNGEFTVNIALIDHGKPILGVVYAPVMNVMYSAAEGKAWKEECGVRKQIQVRDARPPLVVISRSHADAELKEYLQQLGEHQTTSIGSSLKFCLVAEGQAQLYPRFGPTNIWDTAAGHAVAAAAGAHVHDWQGKPLDYTPRESFLNPGFRVSIY | 4.77 ± 0.078 | 4.6 ± 0.36 | 4.29 ± 0.011 | 2.97 ± 0.26 | 4.77 ± 0.62 | 5.51 ± 1.2 | 5.69 ± 0.6 | 10.58 ± 0.1 | 4.76 ± 0.5 | 7.931 ± 0.051 | 6.3 ± 0.95 | 10.7 ± 0.4
MSKAGASLATCYGPVSADVIAKAENIRLLILDVDGVLSDGLIYMGNNGEELKAFNVRDGYGIRCALTSDIEVAIITGRKAKLVEDRCATLGITHLYQGQSNKLIAFSDLLEKLAIAPENVAYVGDDLIDWPVMEKVGLSVAVADAHPLLIPRADYVTRIAGGRGAVREVCDLLLLAQGKLDEAKGQSI [P0ABZ4] | 6.03 ± 0.62 | 4.75 | 4.36 ± 0.21 | – | 5.24 ± 0.48 | 4.98 ± 0.53 | 4.33 ± 1.4 | 11.2 ± 2 | 4.81 | 7.52 ± 0.99 | 6.58 | 13.2 ± 0.32
MNRFSKTQIYLHWITLLFVAITYAAMELRGWFPKGSSTYLLMRETHYNAGIFVWVLMFSRLIIKHRYSDPSIVPPPPAWQMKAASLMHIMLYITFLALPLLGIALMAYSGKSWSFLGFNVSPFVTPNSEIKALIKNIHETWANIGYFLIAAHAGAALFHHYIQKDNTLLRMMPRRK | – | – | 5.19 | 3.2 | – | – | – | – | – | – | – | > 16
MNDYKMTPGERRATWGLGTVFSLRMLGMFMVLPVLTTYGMALQGASEALIGIAIGIYGLTQAVFQIPFGLLSDRIGRKPLIVGGLAVFAAGSVIAALSDSIWGIILGRALQGSGAIAAAVMALLSDLTREQNRTKAMAFIGVSFGITFAIAMVLGPIITHKLGLHALFWMIAILATTGIALTIWVVPNSSTHVLNRESGMVKGSFSKVLAEPRLLKLNFGIMCLHILLMSTFVALPGQLADAGFPAAEHWKVYLATMLIAFGSVVPFIIYAEVKRKMKQVFVFCVGLIVVAEIVLWNAQTQFWQLVVGVQLFFVAFNLMEALLPSLISKESPAGYKGTAMGVYSTSQFLGVAIGGSLGGWINGMFDGQGVFLAGAMLAAVWLTVASTMKEPPYVSSLRIEIPANIAANEALKVRLLETEGIKEVLIAEEEHSAYVKIDSKVTNRFEIEQAIRQA | 5.51 | – | 5.16 ± 0.38 | 3.17 ± 0.88 | 5.38 ± 0.66 | 5.73 ± 0.96 | 5.45 ± 0.11 | 11.2 ± 1.9 | 5.15 ± 0.25 | 10.1 ± 0.3 | 5.42 ± 0.72 | 8.82 ± 0.54
MQQQKPLEGAQLVIMTIALSLATFMQVLDSTIANVAIPTIAGNLGSSLSQGTWVITSFGVANAISIPLTGWLAKRVGEVKLFLWSTIAFAIASWACGVSSSLNMLIFFRVIQGIVAGPLIPLSQSLLLNNYPPAKRSIALALWSMTVIVAPICGPILGGYISDNYHWGWIFFINVPIGVAVVLMTLQTLRGRETRTERRRIDAVGLALLVIGIGSLQIMLDRGKELDWFSSQEIIILTVVAVVAICFLIVWELTDDNPIVDLSLFKSRNFTIGCLCISLAYMLYFGAIVLLPQLLQEVYGYTATWAGLASAPVGIIPVILSPIIGRFAHKLDMRRLVTFSFIMYAVCFYWRAYTFEPGMDFGASAWPQFIQGFAVACFFMPLTTITLSGLPPERLAAASSLSNFTRTLAGSIGTSITTTMWTNRESMHHAQLTESVNPFNPNAQAMYSQLEGLGMTQQQASGWIAQQITNQGLIISANEIFWMSAGIFLVLLGLVWFAKPPFGAGGGGGGAH [P0AEJ0] | 7.36 | 6.52 ± 0.46 | 5.55 ± 0.64 | 3.78 | 6.64 ± 0.3 | 5.94 | – | > 16 | – | – | 5.89 | 10.4 ± 0.82
MSKNERMVGISRRTLVKSTAIGSLALAAGGFSLPFTLRNAAAAVQQAREKVVWGACSVNCGSRCALRLHVKDNEVTWVETDNTGSDEYGNHQVRACLRGRSIRRRINHPDRLNYPMKRVGKRGEGKFERISWDEALDTIASSLKKTVEQYGNEAVYIQYSSGIVGGNMTRSSPSASAVKRLMNCYGGSLNQYGSYSTAQISCAMPYTYGSNDGNSTTDIENSKLVVMFGNNPAETRMSGGGITYLLEKAREKSNAKMIVIDPRYTDTAAGREDEWLPIRPGTDAALVAGIAWVLINENLVDQPFLDKYCVGYDEKTLPADAPKNGHYKAYILGEGDDKTAKTPQWASQITGIPEDRIIKLAREIGTAKPAYICQGWGPQRQANGELTARAIAMLPILTGNVGISGGNSGARESTYTITIERLPVLDNPVKTSISCFSWTDAIDHGPQMTAIRDGVRGKDKLDVPIKFIWNYAGNTLVNQHSDINKTHEILQDESKCEMIVVIENFMTSSAKYADILLPDLMTVEQEDIIPNDYAGNMGYLIFLQPVTSEKFERKPIYWILSEVAKRLGPDVYQKFTEGRTQEQWLQHLYAKMLAKDPALPSYDELKKMGIYKRKDPNGHFVAYKAFRDDPEANPLKTPSGKIEIYSSRLAEIARTWELEKDEVISPLPVYASTFEGWNSPERRTFPLQLFGFHYKSRTHSTYGNIDLLKAACRQEVWINPIDAQKRGIANGDMVRVFNHRGEVRLPAKVTPRILPGVSAMGQGAWHEANMSGDKIDHGGCVNTLTTLRPSPLAKGNPQHTNLVEIEKI | 5.78 | – | – | – | – | – | – | – | – | – | – | –
MNTPAQLSLPLYLPDDETFASFWPGDNSSLLAALQNVLRQEHSGYIYLWAREGAGRSHLLHAACAELSQRGDAVGYVPLDKRTWFVPEVLDGMEHLSLVCIDNIECIAGDELWEMAIFDLYNRILESGKTRLLITGDRPPRQLNLGLPDLASRLDWGQIYKLQPLSDEDKLQALQLRARLRGFELPEDVGRFLLKRLDREMRTLFMTLDQLDRASITAQRKLTIPFVKEILKL | 5.11 ± 0.35 | 5.42 ± 0.81 | 4.29 ± 0.12 | 2.74 ± 0.07 | 4.947 ± 0.022 | 4.21 ± 0.21 | 5.7 ± 1.3 | 9.48 ± 1.9 | 4.404 ± 0.034 | 7.28 ± 0.61 | 5.14 ± 0.064 | 10.6 ± 0.12
MAKEISSELLNTILTRVGGPGNIASCGNCMTRLRLGVHDSSLVDPNIKTLEGVKGVILTSDQVQVVFGPGKAHRAAKAMSELLGEAPVQDAAEIAAQNKRQLKAKQTSGVQQFLAKFATIFTPLIPGFIAAGLLLGIATLIATVMHVPADAQGTLPDALNFMKVFSKGLFTFLVILVGYNAAQAFGGTGVNGAIIAALFLLGYNPAATTGYYAGFHDFFGLPIDPRGNIIGVLIAAWACARIEGMVRRFMPDDLDMLLTSLITLLITATLAYLIIMPLGGWLFEGMSWLFMHLNSNPFGCAVLAGLFLIAVVFGVHQGFIPVYLALMDSQGFNSLFPILSMAGAGQVGAALALYWRAQPHSALRSQVRGAIIPGLLGVGEPLIYGVTLPRMKPFVTACLGGAAGGLFIGLIAWWGLPMGLNSAFGPSGLVALPLMTSAQGILPAMAVYAGGILVAWVCGFIFTTLFGCRNVNLD | 3.66 | – | 6.02 | 3.48 | 3.67 | – | 5.06 | – | 5.006 ± 0.029 | – | – | –
MKLRLSALALGTTLLVGCASSGTDQQGRSDPLEGFNRTMYNFNFNVLDPYIVRPVAVAWRDYVPQPARNGLSNFTGNLEEPAVMVNYFLQGDPYQGMVHFTRFFLNTILGMGGFIDVAGMANPKLQRTEPHRFGSTLGHYGVGYGPYVQLPFYGSFTLRDDGGDMADGFYPVLSWLTWPMSVGKWTLEGIETRAQLLDSDGLLRQSSDPYIMVREAYFQRHDFIANGGELKPQENPNAQAIQDDLKDIDSE | 6.54 ± 0.28 | – | 5.99 ± 0.31 | 3.153 ± 0.018 | 6.05 ± 0.062 | – | 6.61 ± 1.3 | 13.9 ± 0.49 | 6.37 ± 0.039 | 12.59 ± 0.014 | 5.98 ± 0.64 | 13.4 ± 0.97
